Data published in PMC7822942.
Each block holds one substance with its values, some of them ahead of it.

Tests used:
Assay in all cases: thermodynamic integration MD simulation (TIMD; computed, not an experimental measurement)
[1] = target: rat gephyrin E-domain (amino acids 318-736) G545A (other chain of the homodimer); conditions: E-domain dimer; value per mutation point; read off a plot
[2] = target: rat gephyrin G-domain (amino acids 1-188) V43L (other chains of the homotrimer); conditions: G-domain trimer; value per mutation point; read off a plot
[3] = target: rat gephyrin G-domain (amino acids 1-188) A91T (other chains of the homotrimer); conditions: G-domain trimer; value per mutation point; read off a plot
[4] = target: rat gephyrin E-domain (amino acids 318-736) G375D (other chain of the homodimer); conditions: E-domain dimer; value per mutation point; read off a plot
[5] = target: rat gephyrin E-domain (amino acids 318-736) D664N (other chain of the homodimer); conditions: E-domain dimer; value per mutation point; read off a plot
[6] = target: rat gephyrin E-domain (amino acids 318-736) G545S (other chain of the homodimer); conditions: E-domain dimer; value per mutation point; read off a plot

ddG [1]: 0.3 kcal/mol
Substance: rat gephyrin E-domain WT (amino acids 318-736) G545A

ddG [2]: -0.95 kcal/mol
Substance: rat gephyrin G-domain WT (amino acids 1-188) V43L

ddG [3]: 1.7 kcal/mol
Substance: rat gephyrin G-domain WT (amino acids 1-188) A91T

ddG [4]: 5.7 kcal/mol
Substance: rat gephyrin E-domain WT (amino acids 318-736) G375D

ddG [5]: -0.7 kcal/mol
Substance: rat gephyrin E-domain WT (amino acids 318-736) D664N

ddG [6]: 0.2 kcal/mol
Substance: rat gephyrin E-domain WT (amino acids 318-736) G545S
